Experimental data as given in patent US20250163168A1 (Pfizer, published 2025).
Square brackets hold non-standard residues; d marks the D form. Ends that are not written are not given here. * marks the point of attachment. Aib = CC(C)(N)C(=O)O; BrAc = O=C(CBr)*

T1: Human GIPR ECD (GIPR extra cellular domain) (human)
T1 construct: The published benchmark structures (6dkj, 4hj0) used their own ECD constructs
T1 chain: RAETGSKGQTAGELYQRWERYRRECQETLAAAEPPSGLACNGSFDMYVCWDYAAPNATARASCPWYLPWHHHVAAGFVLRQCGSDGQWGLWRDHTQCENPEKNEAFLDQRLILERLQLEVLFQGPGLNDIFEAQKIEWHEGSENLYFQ

T2: human GIPR (hGIPR), full length (human, UniProt P48546 22-466)
T2 sequence: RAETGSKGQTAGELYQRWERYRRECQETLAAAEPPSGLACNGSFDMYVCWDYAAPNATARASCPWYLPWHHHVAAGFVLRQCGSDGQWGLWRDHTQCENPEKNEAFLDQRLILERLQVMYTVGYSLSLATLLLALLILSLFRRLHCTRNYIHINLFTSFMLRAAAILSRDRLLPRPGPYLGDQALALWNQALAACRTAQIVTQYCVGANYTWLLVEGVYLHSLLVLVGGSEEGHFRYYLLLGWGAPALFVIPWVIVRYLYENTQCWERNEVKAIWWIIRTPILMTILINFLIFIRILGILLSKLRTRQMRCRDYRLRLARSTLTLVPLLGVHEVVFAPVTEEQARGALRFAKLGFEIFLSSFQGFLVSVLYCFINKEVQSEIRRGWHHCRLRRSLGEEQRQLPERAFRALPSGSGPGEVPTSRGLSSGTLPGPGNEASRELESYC


What was measured:
[1] = target: T1, Human GIPR ECD (GIPR extra cellular …); assay: SPR (Biacore 8K, 37 C); antibody captured on anti-human IgG, human GIPR ECD as analyte; 1:1 model
[2] = target: T2, human GIPR (hGIPR), full length; assay: cell-based or functional assay
human GLP1R = human GLP1R (human, UniProt P43220 24-463); assay: cell-based or functional assay
human GLP1R, sequence (P43220 24-463): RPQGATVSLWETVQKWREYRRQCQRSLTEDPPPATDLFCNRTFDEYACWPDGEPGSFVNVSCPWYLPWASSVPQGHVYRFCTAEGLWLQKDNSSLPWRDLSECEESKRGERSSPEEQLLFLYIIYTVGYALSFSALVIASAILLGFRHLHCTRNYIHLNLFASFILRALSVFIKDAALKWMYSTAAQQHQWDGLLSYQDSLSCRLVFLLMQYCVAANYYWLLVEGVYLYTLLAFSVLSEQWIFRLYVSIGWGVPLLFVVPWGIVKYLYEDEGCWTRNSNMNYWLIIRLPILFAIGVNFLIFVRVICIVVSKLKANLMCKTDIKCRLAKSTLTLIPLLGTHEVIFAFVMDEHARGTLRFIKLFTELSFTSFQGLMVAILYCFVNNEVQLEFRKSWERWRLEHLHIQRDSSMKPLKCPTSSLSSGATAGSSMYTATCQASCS

Row | Binder | Kd [1] [nM] | koff [1] [s⁻¹] | kon [1] [M⁻¹ s⁻¹] | Human GIPR-CHO cAMP Antagonist Activity IC50 [2] [nM] | cAMP assay, GLP1R agonist mode, Emax (%) (human GLP1R) | cAMP assay, GLP1R agonist mode, EC50 (pM) (human GLP1R)
1 | anti-GIPR antibody GIPR-2767 (antibody, human IgG1, kappa, also called GIPR-27676; GIPR-2676) heavy: EVQLVESGGGLVKPGGSLRLSCAASGFPFSSAWMSWVRQAPGKGLEWVGRIKSKADAGTTDYGAPVKGRFTISRDDSKNTLYLQMNSLKTEDTAVYYCTTEDIVGVPFKGYYQYMDAWGKGTTVTVSSASTKGPSVFPLAPSSKSTSGGTAALGCLVKDYFPEPVTVSWNSGALTSGVHTFPAVLQSSGLYSLSSVVTVPSSSLGTQTYICNVNHKPSNTKVDKKVEPKSCDKTHTCPPCPAPEAAGAPSVFLFPPKPKDTLMISRTPEVTCVVVDVSHEDPEVKFNWYVDGVEVHNAKTKPREEQYNSTYRVVSVLTVLHQDWLNGKEYKCKVSNKALPAPIEKTISKAKGQPREPQVYTLPPSREEMTKNQVSLTCLVKGFYPSDIAVEWESNGQPENNYKTTPPVLDSDGSFFLYSKLTVDKSRWQQGNVFSCSVMHEALHNHYTQKSLSLSPGK light: not shown | 1.91 | 0.0013 | 684000 | 28 |  | 
2 | H-H[Aib]EGTFTSDVSSYLE[Aib]QAAKEFIAWLVKGRGGGGGSGGGGSGGGGSK(BrAc) (not fully specified (C-terminus)) [SEQ ID NO 150: GLP1(7-37) [Aib8; Aib22] with GGGGS(x3)-K(BrAc) linker] |  |  |  |  | 104 | 
3 | H-H[Aib]EGTFTSDYSSYLE[Aib]QAAKEFIAWLVKGRGGGGGSGGGGSGGGGSK(BrAc) (not fully specified (C-terminus)) [SEQ ID NO 152: GLP1(7-37) [Aib8; Tyr16; Aib22] with GGGGS(x3)-K(BrAc) linker] |  |  |  |  | 107 | 2.1
4 | H-H[Aib]EGTFTSDVSSYLEEQAAKEFIAWLVKGGGGGGGSGGGGSGGGGSK(BrAc) (not fully specified (C-terminus)) [SEQ ID NO 153 (Benchmark): GLP1(7-37) [Aib8; Glu22; Gly36] with GGGGS(x3)-K(BrAc) linker] |  |  |  |  | 109 | 15
5 | H[Aib]EGTFTSDYSSYLEEQAAKEFIAWLVKGRGGGGGSGGGGSGGGGSK(BrAc) (not fully specified (C-terminus)) [SEQ ID NO 151: GLP1(7-37) [Aib8; Tyr16; Glu22] with GGGGS(x3)-K(BrAc) linker] |  |  |  |  | 109 | 3.5
